Measurements from PMC4899126.

Experiments:
[1] = target: E.r. RT domain (group II intron maturase from Eubacterium rectale M104/1, residues 1-293) (Eubacterium rectale M104/1); test: SEC-MALS
[2] = target: E.r. RT domain (group II intron maturase from Eubacterium rectale M104/1, residues 1-293) (Eubacterium rectale M104/1); test: AUC
[3] = target: E.r. RT domain (group II intron maturase from Eubacterium rectale M104/1, residues 1-293) (Eubacterium rectale M104/1); test: SEC-MALS; remark: listed apart in the source
[4] = target: E.r. RT domain (group II intron maturase from Eubacterium rectale M104/1, residues 1-293) (Eubacterium rectale M104/1); test: AUC; remark: listed apart in the source

Measured: stoichiometry N

E.r. RT domain (group II intron maturase from Eubacterium rectale M104/1, residues 1-293) (domain or fragment)
2: all assays above
